Data on five proteins can be found in PMC4525163, “Assembly-driven activation of the AIM2 foreign-dsDNA sensor provides a polymerization template for downstream ASC” (Nature Communications, 2015).

Data set [1] concerns the molecule itself. The experiment in a line: negative-stain electron microscopy; dsDNA-free AIM2FL variants at 2 uM adsorbed to carbon grids, stained with 1% uranyl formate or uranyl acetate; filaments.
Data set [2] concerns the molecule itself. In words: negative stain electron microscopy; purified protein incubated 30 min with λdsDNA (wild type also with supercoiled and nicked circular plasmids), 160 mM KCl; filament formation on dsDNA.

B1: E147A-AIM2FL (natural protein, UniProt O14862 1-343, looked up)
chain: MESKYKEILLLTGLDNITDEELDRFKFFLSDEFNIATGKLHTANRIQVATLMIQNAGAVSAVMKTIRIFQKLNYMLLAKRLQEEKEKVDKQYKSVTKPKPLSQAEMSPAASAAIRNDVAKQRAAPKVSPHVKPEQKQMVAQQESIRAGFQKRCLPVMVLKAKKPFTFETQEGKQEMFHATVATEKEFFFVKVFNTLLKDKFIPKRIIIIARYYRHSGFLEVNSASRVLDAESDQKVNVPLNIIRKAGETPKINTLQTQPLGTIVNGLFVVQKVTEKKKNILFDLSDNTGKMEVLGVRNEDTMKCKEGDKVRLTFFTLSKNGEKLQLTSGVHSTIKVIKAKKKT
notes: AIM2 (absent-in-melanoma-2), full length, residues 1-343, with E147A in the HIN200 domain; source: E. coli ER2566, purified (amylose resin, HiTrap-SP, TEV cleavage, gel filtration); not shown: MBP, N-terminal, cleaved
For B1, the binding result in data set [1] is on record as “binds”.

B2: I46D mutant of full-length AIM2 (natural protein, UniProt O14862 1-343, looked up)
chain: MESKYKEILLLTGLDNITDEELDRFKFFLSDEFNIATGKLHTANRDQVATLMIQNAGAVSAVMKTIRIFQKLNYMLLAKRLQEEKEKVDKQYKSVTKPKPLSQAEMSPAASAAIRNDVAKQRAAPKVSPHVKPEQKQMVAQQESIREGFQKRCLPVMVLKAKKPFTFETQEGKQEMFHATVATEKEFFFVKVFNTLLKDKFIPKRIIIIARYYRHSGFLEVNSASRVLDAESDQKVNVPLNIIRKAGETPKINTLQTQPLGTIVNGLFVVQKVTEKKKNILFDLSDNTGKMEVLGVRNEDTMKCKEGDKVRLTFFTLSKNGEKLQLTSGVHSTIKVIKAKKKT
notes: AIM2 (absent-in-melanoma-2), residues 1-343, mutation in the PYD; Probably with the MBP tag removed as for wild-type AIM2^FL; source: E. coli ER2566, purified
In the case of B2, in data set [2], the binding result is listed as “binds”.

B3: Q258A-AIM2FL (natural protein, UniProt O14862 1-343, looked up)
chain: MESKYKEILLLTGLDNITDEELDRFKFFLSDEFNIATGKLHTANRIQVATLMIQNAGAVSAVMKTIRIFQKLNYMLLAKRLQEEKEKVDKQYKSVTKPKPLSQAEMSPAASAAIRNDVAKQRAAPKVSPHVKPEQKQMVAQQESIREGFQKRCLPVMVLKAKKPFTFETQEGKQEMFHATVATEKEFFFVKVFNTLLKDKFIPKRIIIIARYYRHSGFLEVNSASRVLDAESDQKVNVPLNIIRKAGETPKINTLQTAPLGTIVNGLFVVQKVTEKKKNILFDLSDNTGKMEVLGVRNEDTMKCKEGDKVRLTFFTLSKNGEKLQLTSGVHSTIKVIKAKKKT
notes: AIM2 (absent-in-melanoma-2), full length, residues 1-343, with Q258A in the HIN200 domain; source: E. coli ER2566, purified (amylose resin, HiTrap-SP, TEV cleavage, gel filtration); not shown: MBP, N-terminal, cleaved
Regarding B3, the binding result in data set [1] is “binds”.

B4: T50A-AIM2FL (natural protein, UniProt O14862 1-343, looked up)
chain: MESKYKEILLLTGLDNITDEELDRFKFFLSDEFNIATGKLHTANRIQVAALMIQNAGAVSAVMKTIRIFQKLNYMLLAKRLQEEKEKVDKQYKSVTKPKPLSQAEMSPAASAAIRNDVAKQRAAPKVSPHVKPEQKQMVAQQESIREGFQKRCLPVMVLKAKKPFTFETQEGKQEMFHATVATEKEFFFVKVFNTLLKDKFIPKRIIIIARYYRHSGFLEVNSASRVLDAESDQKVNVPLNIIRKAGETPKINTLQTQPLGTIVNGLFVVQKVTEKKKNILFDLSDNTGKMEVLGVRNEDTMKCKEGDKVRLTFFTLSKNGEKLQLTSGVHSTIKVIKAKKKT
notes: AIM2 (absent-in-melanoma-2), full length, residues 1-343, with T50A in the PYD; source: E. coli ER2566, purified (amylose resin, HiTrap-SP, TEV cleavage, gel filtration); not shown: MBP, N-terminal, cleaved
On to B4, for which, in data set [1], the binding result is on record as “binds”.

B5: L10A-L11A-AIM2^FL (natural protein, UniProt O14862 1-343, looked up)
chain: MESKYKEILAATGLDNITDEELDRFKFFLSDEFNIATGKLHTANRIQVATLMIQNAGAVSAVMKTIRIFQKLNYMLLAKRLQEEKEKVDKQYKSVTKPKPLSQAEMSPAASAAIRNDVAKQRAAPKVSPHVKPEQKQMVAQQESIREGFQKRCLPVMVLKAKKPFTFETQEGKQEMFHATVATEKEFFFVKVFNTLLKDKFIPKRIIIIARYYRHSGFLEVNSASRVLDAESDQKVNVPLNIIRKAGETPKINTLQTQPLGTIVNGLFVVQKVTEKKKNILFDLSDNTGKMEVLGVRNEDTMKCKEGDKVRLTFFTLSKNGEKLQLTSGVHSTIKVIKAKKKT
notes: AIM2 (absent-in-melanoma-2), residues 1-343, mutations in the PYD; Probably with the MBP tag removed as for wild-type AIM2^FL; source: E. coli ER2566, purified
As for B5, the binding result in data set [2] is given as “binds”.
